Target: DDX3X (UniProt O00571)
Test: fluorescence polarization, protein titration
Details: FP: 14.4 mM HEPES-KOH pH 8, 108 mM NaCl, 1 mM MgCl2, 14.4% glycerol, 0.1% DMSO, 2 mM DTT, 1 mM ATP, 10 nM probe, room temperature, 10 min

Chain of DDX3X (O00571 132-607): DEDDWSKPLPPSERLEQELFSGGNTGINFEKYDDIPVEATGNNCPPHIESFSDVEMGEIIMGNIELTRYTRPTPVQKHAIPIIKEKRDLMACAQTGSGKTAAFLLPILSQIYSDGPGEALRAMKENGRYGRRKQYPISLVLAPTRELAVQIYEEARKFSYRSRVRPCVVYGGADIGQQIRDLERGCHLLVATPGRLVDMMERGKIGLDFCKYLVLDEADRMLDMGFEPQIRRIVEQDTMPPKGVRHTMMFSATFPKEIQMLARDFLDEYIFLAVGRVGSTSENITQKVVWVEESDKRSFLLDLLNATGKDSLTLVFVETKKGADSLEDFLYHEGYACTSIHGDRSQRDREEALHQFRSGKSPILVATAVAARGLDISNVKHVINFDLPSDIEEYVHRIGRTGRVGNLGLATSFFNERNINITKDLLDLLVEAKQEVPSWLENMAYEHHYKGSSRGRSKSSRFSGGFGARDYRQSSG

AGAGAGAGAGAGAGAG [FAM-r(AG)8]
K half: 2800 nM
